For one assay, the system named is primary myoblasts. Put plainly: Proliferation of primary myoblasts over five days. The settings on record: 3 h exposure; various concentrations; over 5 days. The assay is classed as cell-based. The procedure: The proliferation of primary myoblasts following a 3 h exposure to various concentrations of Wnt7a was analyzed to control for the effect being due to changes in the cell cycle status of the transplanted cells.

Assay [1] deals with mdx extensor digitorum longus (EDL) muscles. Put plainly: Muscle force measurement of mdx EDL muscles after satellite cell transplantation. The settings on record: 3,000 satellite cells treated ex vivo, compared to Veh. In kind it is in vivo, mouse. From the text: Under normal conditions, a portion of transplanted satellite cells will differentiate and fuse to muscle myofibers. In mdx mice, this process can be tracked by staining for restored dystrophin expression in muscle fibers. […] Similar to the stimulatory effect of Wnt7a on myogenic cell migration in vitro, clusters of dystrophin-expressing myofibers in muscles that were transplanted with Wnt7a-treated cells were highly dispersed and on average located maximally 3.7 mm apart. By contrast, transplantation of untreated cells gave rise to clusters of dystrophin-expressing myofibers that were on maximally 2.2 mm apart on average (FIGS. 6F and 6G).
Extensor digitorum longus (EDL) muscles were isolated three weeks following transplantation and attached to an electrode and a force sensor (Aurora Scientific), and incubated at 25° C. in buffered physiological saline (Krebs-Ringer) supplemented with glucose and oxygen. Twitch force was determined following a single electrical stimulus, while maximal force was generated by electrical stimulation at 100 Hz for 500 ms. Thereafter, muscle length and weight were measured and specific muscle force was calculated ((maximal force×optimal fiber length×muscle density)/muscle mass).

A further assay relates to Fzd7. In words: Subcellular distribution of Fzd7-YFP in primary myoblasts. In kind it is cell-based. To be noted: Wnt7a stimulated vs controls. The procedure:
The effect of Wnt7a treatment on the subcellular distribution of Fzd7 was tested. […] Furthermore, it was observed that myoblasts exposed to conditioned medium containing HA epitope tagged Wnt7a (Wnt7a-HA) quickly endocytosed this factor. After 3 h of incubation and several subsequent washing steps, endocytosed Wnt7a-HA was detectable for ≧72 h in intracellular structures in primary myoblasts (FIG. 4E) and C2C12 cells (FIG. 11E).

The test system of assay [2] is tibialis anterior (TA) muscle. In words: In vivo myoblast dispersal assay, tdTomato myoblasts into TA of C57BL/6 mice. The arrangement: species or system mouse. To be noted: myoblasts treated 3 h, transplanted into TA of immunosuppressed C57BL/6 mice; 7 days; vs Veh. The procedure:
The duration of effects on cell migration were tested by loading intracellular stores with Wnt7a. tdTomato-expressing primary myoblasts, derived from tamoxifen treated Pax7-CreER; R26R-tdTomato mice (Yin et al., 2013a) were exposed to Wnt7a for 3 h; then the cells were washed and transplanted into the tibialis anterior (TA) muscle of immunosuppressed C57BL/6 mice (FIG. 5A). The myoblasts were co-injected with fluorescent microspheres to identify the injection site in subsequent analyses. 7 days later the mice were sacrificed and the behavior of the transplanted cells in the tissue was analyzed by scoring the number of tdTomato-expressing myofibers that were generated by fusion events with the donor cells. Transplantation of zsGreen-expressing satellite cells or myoblasts into mdx mice was performed as previously described (Bentzinger et al., 2013c). Before transplantation the cells were treated for 3 h with Wnt7a, Wnt5a, or Wnt3a (R&D Systems) at a concentration of 50 ng/mL for freshly isolated satellite cells or with 100 ng/mL for cultured cells. Myoblasts expressing tdTomato were transplanted into uninjured muscles of C57BL/6 mice that were implanted with an osmotic pump (Alzet) delivering FK506 (Sigma) at 2.5 mg/kg/day 3 days prior to the transplantations. […]

Here are results for 1 molecule from patent US20170087188A1, “WNT INDUCED MOTILITY AND ENHANCED ENGRAFTMENT OF CELLS” (OTTAWA HOSPITAL RESEARCH INSTITUTE, priority 2014, published 2017).

“Also recorded” adds a separate entry of the source.

B1: Wnt7a: non-canonical Wnt polypeptide (R&D Systems) used to treat or load myogenic cells (protein, UniProt O00755 32-349, looked up)
Protein Wnt-7a: LGASIICNKIPGLAPRQRAICQSRPDAIIVIGEGSQMGLDECQFQFRNGRWNCSALGERTVFGKELKVGSREAAFTYAIIAAGVAHAITAACTQGNLSDCGCDKEKQGQYHRDEGWKWGGCSADIRYGIGFAKVFVDAREIKQNARTLMNLHNNEAGRKILEENMKLECKCHGVSGSCTTKTCWTTLPQFRELGYVLKDKYNEAVHVEPVRASRNKRPTFLKIKKPLSYRKPMDTDLVYIEKSPNYCEEDPVTGSVGTQGRACNKTAPQASGCDLMCCGRGYNTHQYARVWQCNCKFHWCCYVKCNTCSERTEMYTCK
Turning to B1, in the assay with primary myoblasts, the “rate of proliferation of primary myoblasts” value is “No change in the rate of proliferation”. Moreover, in assay [1], the “increase in maximal specific force generation” value turned out to be 18% and the “increase in twitch tension” value worked out at 30%. Further, the “subcellular distribution of Fzd7-YFP” value in the assay on Fzd7 was “decreases the abundance of peripheral Fzd7-YFP; also recorded: higher abundance of large intracellular aggregates and reduced peripheral Fzd7-YFP”. For the same molecule, in assay [2], the “increase in number of tdTomato-expressing myofibers” value worked out at 119%.
